Test results taken from the nanobody polyreactivity screen of Harvey et al. (2022).

Assay: yeast display, Sf9 membrane polyspecificity reagent, FACS + sequencing; frameworks hold sequencing errors
Outline: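 Galactose induction of a Saccharomyces cerevisiae BJ5465 synthetic nanobody display library ran 36–48 hours. The cells were then stained for 1 hour at 4 °C with 10% biotinylated, detergent-solubilized Sf9 membrane reagent, pulled down on streptavidin microbeads and FACS-sorted into low and high (top ~1%) gates on expression and reagent-binding fluorescence. Labels for polyreactivity follow the gate of origin.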

QVHLVESGGGLVQAGGSLRLSSAASGITFGWYAMGWYRQAPGKERELVAAIDRGGSTYYADSVKGRFTISRDNAKITVYLQMNSLKPEDTAVYYCAVELRLRYGYDYWGQGTEVTVSS
polyreactivity (PSR sort gate): high polyreactivity

QVQLVESGGGLVQAGGSLRLSCAASGIFWANGMGWYRQAPGKEREWVAAITSGGSTNYADSVKGRFTISRDNAKNTVYLQMNSLKPEDTAVYYCNKPWYSYRYGGVGYGYWGQGTQVTVSS
polyreactivity (PSR sort gate): low polyreactivity

QVQLVETGGGLVQAGGSLRLSCAASGFTFGSNAMGWYRQAPGKEREFVAAITYSGGGTYADSVKGRFTISRDNAKHTVDLQMNSLKPEDTAVYYCATDAYRWHYWNFGFGYWGQGTQVTVSS
polyreactivity (PSR sort gate): high polyreactivity

QVQLVESGGGLVQAGGSLLLSCAASGRILDFYDMGWYRQAPGKERELVAAITNSASTYYADSVKGRFTISRDNAKNTVYLQMNRLKPEDTAVYYCNADLYRGAYYGTYWSDWGYDYWGQGTQVTVSS
polyreactivity (PSR sort gate): low polyreactivity

QDQLVESVGGLDQAGGSLRLSCAASGFIFGANAIGWYRQATGKEREMVAAISSSGGRYELRRSVKGRFTISRDNAKNTVYLQMNSLKPEDTAVYYCATPYPTGRPRHYSWGQGTQVTVSS
polyreactivity (PSR sort gate): high polyreactivity

QVQIVESGGGLVQAGGSLRLSCAASGITFYGYAMGWYRQAPGKERELVAVITSSRSSTYYADSVKGRFTISRDNAKNTFFLQMNSLKPEDTEVYYCNPRPGRRSLRSRTYDYWGQGTQVTVSS
polyreactivity (PSR sort gate): high polyreactivity

QVQLVESGGGLVQAGGSLRLSCAASGRTFYGNAMGWYRQAPGKERELVAAITTGGGNTYYADSVKGRFTISRDHAKNTVYLQMNRLKPEDTAVYYCAAYERKFYTVSRWYKLDYWGQGTQVTVSS
polyreactivity (PSR sort gate): high polyreactivity

QVQLVESGGGLVQAGGSLRLSCDASGRIFYGYVMGWYRQAPGKERELVAAINQSGTSTYYADSVKGRFTISRDNAKNTVYLQMNSLKPEDTAVYYCAADQVGWTYDYWGQGTQVTVSS
polyreactivity (PSR sort gate): low polyreactivity

QVQLVESGGGLVQAGGSLRLSCAASGFIFTQNGMGWYRQAPGKERELVAAISWSAGGTYYADSVKGRFTISRDNANNTVYLQMNSLKQEDTAVYYCNAELYFYWNVWVGYDYWGQGTQVTVSS
polyreactivity (PSR sort gate): low polyreactivity

QVQLVESGGGLVQAGGSLRLSCAATGSTFDNYAMGWYRQAHGKERELVADITWSGGSTYYADSVKGRFTISRDNAKNTVYLQMNSLKPEDTAVYYCNTAGYYTKYDYWGQGTQVTVSS
polyreactivity (PSR sort gate): low polyreactivity

QVQLVESGGGLVQAGGSLRLSCAASGFTFRLVNAMGWYRQAPGKERELVAGINSGDITYYADSVKGRFTISRDNAKNTVYLQMNSLKPEDTAVYYCAARVAWGYDYWGQGTQVTVSS
polyreactivity (PSR sort gate): low polyreactivity

QVQLVESGGGIVQAGGSLRLSCAASGNTYRWYAMGWNIQAPGKEREFVADITVRGGSTYYADSVKGRFTISRDNAKNTVYLQMNSLKPEDTAVYYCAADYRYGGSRGYRYDYWGQGTQVTVSS
polyreactivity (PSR sort gate): low polyreactivity

QVQHVESGGGLVQAGGSQRLSCAASGSTLYYNAMGWYRQAPGKEREFVAGISSSGGRTYYADSVKGRFTISRDNAKNTVYLQMNSLKPEDTAVYYCARVGAIPSRYGYWGQGTQVTVSS
polyreactivity (PSR sort gate): high polyreactivity

QVQLVESGGGLVQAGGSLRLSCAASGFTFGANVMGWYRQAPGKERQLVAGITWSGDSTYYADSVKGRFTISRDNAKNTVYLQMNSLKPEDTAVYYCAADVYDGEYILDYDYWGQGTQVTVSS
polyreactivity (PSR sort gate): low polyreactivity

QVQLVESGGGLVHSGRSLRLSCAASGSISCHYAMGWYRTAHGKERDLLAAIDSSGGIKYYADSVKGRFTISRDNSKNTVYLQMNSLKPEDTAVYYCAAVFLLFGFEWSYDYWGQGTQVTVSS
polyreactivity (PSR sort gate): low polyreactivity

QVQLVESGGGLVQAGGSLRLSCAASGRTLVPYAMGWYRQAPGKERELVAAINSSGGSTYYADSVKGRFTISRDNAKNTVYLQMNSLKPEDTAVYYCAATRYSKYYWGQGTQVTVSS
polyreactivity (PSR sort gate): high polyreactivity

QVQLVESGGGLVQAGGSLRLSCAASGSIFRLYAMGWYRPAPGKERELVATITSGGNTYADSVKGRFTISRDNAKNTVYLQMNSLKPEDTAVYYCAARYRYRGTQRPYVGYYRNDYWGQGTQVTVSS
polyreactivity (PSR sort gate): high polyreactivity

QVQLVESGGGLVQAGGSLRLSCAASGSIFYWNAMGWYRQAPWKERELVASINWSGSTYYADSVKGSFTISRDNAKNTVYLQMNSLKPEDTAVYYCNTDPRVSDASADMEYWGQGTQVTVSS
polyreactivity (PSR sort gate): high polyreactivity

QDQLVESGGGLVQAGGSLRLSCAASGRNFYRNAMGWYRPAPGKEWEVVAAITQSSGSTYYADSVKGRCTISRDNAKHTVYLQMNSLKPEDTAVYYCAALVRKYGVDYWGQGTQVTVSS
polyreactivity (PSR sort gate): high polyreactivity

QVQLVESGGGLVHAGGSLRLSCAASGSIYPYYAMGWYRQAPGKERELVAVISRGGVRTYYADSVKGRFTISRDNAKNTVYLQMNSLKTEDTAVYYCAAGYPYGVDYWGQGTQVTVSS
polyreactivity (PSR sort gate): high polyreactivity

QVQLVESGGGLVQAGGSLRLSCAPAGRTFNGYAMGWYRQAPGKERELVASITLRGGSTYYADSVKGRFTISRDNAKNTVYLQMNSLKPEDTAVYYCNARPHTRRYTFTYGYWGQGTQVTVSS
polyreactivity (PSR sort gate): high polyreactivity

QVQLVESGGGLVQAGGSLRLSCAASGFIFRVNAMGWYRQAPGKERELVAAISSSGTSTYYADSVKGRFTISRDNAKNTVYLQMNSLKPEDTAVYYCAARLFYRSAYGYWGQGTQVTVSS
polyreactivity (PSR sort gate): high polyreactivity

QVQLVESGGGLVQAGGSLRLSCAASGRIFNKYVMGWYRQAPGKERELVAAISGRGGSTYYADYVKGRFTISRDNAKNTVYLQMNSLKPEDTAVYYCAARYGYYTSDYKYYDWGQGTQVTVSS
polyreactivity (PSR sort gate): high polyreactivity

QVQLVESGGGLVQAGGSLRLSCAASGFIFRRNAMGWYRQAPGKERELVASIRSGGSTKYADSVKGRFTISRDNAKNTVYLQMTSLKPEDTAVYYCNADDPGYAVPWYWFKYDYWGQGTQVTVSS
polyreactivity (PSR sort gate): low polyreactivity

QVQLEESGGGIVQAGGSLRLSCAASGRTFVTNAMGWYRKAPGKERELVATINWSGGRTHYADSVKGRFTISRDNAKNTVYLQMNSLKPEDTAVYYCAKASSRRYWTIRDGDYWGQGTQVSVSS
polyreactivity (PSR sort gate): low polyreactivity

QVQLVESWVGLVQAGGSLRLSCAASGNTFKYYDMGWYRQAPGKERELVATISRTAGSTYYADSVKGRFSISRDYAKNTVYLQMNSLKPEDTAVYYCNKDRGHPFKYDYWGQGTQVTVSS
polyreactivity (PSR sort gate): low polyreactivity

QVQLVESGGGLVQAGGSLRLSCAASGSTIIRNAMGWSRQAPGKERELVAAISTSGGRTHYADSVKGRFTISRDNAKNTVYLQMNSLKPEDTAVYYCATRGKGHYYYWGQGTQVTVSS
polyreactivity (PSR sort gate): high polyreactivity

QVQLVESGGGLVQAGGSLRLSCAASGSTFGYYAMGCYRQAPGKERELVAAITSGGSTKYADSVKGRFTISRDNAKNTVYLQMNSLKPEDTAVYYCATSRYFGYGFWGQGTQVTVSS
polyreactivity (PSR sort gate): low polyreactivity

QVQLVESGGGLVQAGGSLRLSCAASGFIFGDYAMGWYRQAPGKERELVAAINYSGGSTYYADSVKGRFTISRDNAKNTGYLQMNSLKPEDTAVYYCAALIYGLVGWGQGTQVTVSS
polyreactivity (PSR sort gate): low polyreactivity

QVQLVESGGGLVQAGGSLRLSCAASGRTIWTYVMGWYRQAPGKERELVAAISRSGSSTYYADSVKGRFTISRDNAKNTVYLQMNSLKPEDTAVYYCAASSPWEQSHDQFYYWGQGTQVTVTS
polyreactivity (PSR sort gate): low polyreactivity

QDQLVESGRGLFQAGGSLRLSCAASGSTLWANAMGWYRQAPGKERELVAAISWRGGRTYYADSVKGRFTISRDNAKNTVYLQMNSLKPEVTAVYYCNAVSYYRPRTDYWGQGTLVTVSS
polyreactivity (PSR sort gate): high polyreactivity

QVQLVESGGGLVQAGGSLRLSCAASGSIFDVNAMGWYRQAPGKERELVAAISDSTTSTYYADSVKGRFTISRDNAKNTVYLQMNSLKPEDTAVYYCNTPGLPIDSEYDYWGQGTQVTVSS
polyreactivity (PSR sort gate): low polyreactivity

QVQLVESGGGLVQAGGRLRLGCAASGSTYLYNAMGLYRQAPGKERELVAAISWTGGSTYYADSVKARYTISRDNAKNTVYLQMNSLKPEDTAVYYCNSLSVPDYDYWGHGTQVTVSS
polyreactivity (PSR sort gate): high polyreactivity

QVQLVESGGGLVQAGGSLRLSCAASGSTFGYYARLWYRQAPGKERDLVAAISYSGGSTYYADSVKGRFTISRDNAKNTVYLQMNSLKPEDTAVYYCAARFTRQMYYWGQGTQVTVSS
polyreactivity (PSR sort gate): high polyreactivity

QVQLVESGGGLVQAGGSLRLSCAASGGTFGSYAMGWYRQAPGKERELVAGITGSGGITKYADSVKGRFTISRDNAKNTVYLQMNSLKPEDTAVYYCNADYSVWYIRLSAYFTYDYWGQGTQVTVSS
polyreactivity (PSR sort gate): high polyreactivity

QVHLVESGGGLVQAGGSLRLSCAASGFTFYSYAMGWYRQAPGKERELVANITIGGSTYADSVKGRFTISRDNAKNTVYLQMNSLKPEDTAVYYCARGYRVVGDPLYGDYDYWGQGTQVTVSS
polyreactivity (PSR sort gate): low polyreactivity

QVQLVESGGGLVQAGGSLRLSCAASGRTFDYNAMGWYRQAPGKERELVAAISSSGGSTYYADSVKGRFTISRDNAKNTVYLQMNSLKPEDTAVYYCDKRRNLWGYEYDSWGQGTQVTVSS
polyreactivity (PSR sort gate): high polyreactivity

QVQLVESGGGLVLAGGTLRISCAASGSIFYRNTMGWYRLAPVKERELVAAITRGGGRTYYADSVKARFTISRDTAKNTVFLQMNSLKPEDSAVYYCAVQAFSHTSSRMDYWGQGSQVTVSS
polyreactivity (PSR sort gate): high polyreactivity

QVQLVESGGRLVQAGGSLRLSCAASGIIIRKYARGWYRPAPGKVRELVAAITTRGSRTYSADSVKGRFTISRDNAKNTVYLQMNSLKPEDTAVYYCAADRYTVRMDYWGQGTQVTVSS
polyreactivity (PSR sort gate): high polyreactivity

QVQLVESGGGLVQAGGSLRLSCAASGRTFILNAMGWYRQAPGKERELVAAISWSGGSTYYADSVKGRFTISRDNAKNTVYLQMNCLKPEDTAVYYCAKRYVDPLGSGTHGSWGQGTQVTVSS
polyreactivity (PSR sort gate): low polyreactivity

QVQLVESGGVLVQAGGSLRLSCAASGRTFYLYAMGWYRHAPGKERELVAAISWSDDTTYYADSVKGRFTISRDNAKNTVYLQRNSLKPEDTAVYYCAAEQEQVALYDYWGQGTQVTVSS
polyreactivity (PSR sort gate): high polyreactivity

QVQLVESGGGLVQAGRSLRLSCAASGRTFVFNAMGWYRQAPGKERELVARITLSGGSTYYADSVKGRFTISRDNAKNTVYLQMNSLKPEDTAVYYCAASHYFWFVQNDSDYWGQGTQVTVSS
polyreactivity (PSR sort gate): low polyreactivity

QVQLVESGGGLVQAGGSLRLSCAASGSIFWYNAMGWYRQAPGKERELVAAITSGGTTSYADSVKGRFTISRDNAKNTVYLQMNSLKPEDTAVYYCAKDWNDDQHSWDTPFDYWGQGTQVTVSS
polyreactivity (PSR sort gate): low polyreactivity
